Test [1] concerns the target T1, recombinant human CD160 protein, soluble form, with a C-terminal tag of 6 histidine residues (R&D SYSTEMS) (human, UniProt O95971 27-159, limits assumed, biotinylated with EZ-Link sulfo-NHS-LC-biotin for BLI and ELISA; not biotinylated when immobilised on the CM5 chip for SPR).
T1 construct: domain: soluble form; Bought protein; also called hCD160-his; biotinylated CD160
T1 sequence: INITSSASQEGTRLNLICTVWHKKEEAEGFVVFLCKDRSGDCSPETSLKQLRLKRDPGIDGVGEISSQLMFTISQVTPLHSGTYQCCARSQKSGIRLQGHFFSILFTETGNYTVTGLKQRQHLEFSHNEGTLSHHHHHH
Description: BLI.

For test [2], the target named is T1, recombinant human CD160 protein, …. The test can be described thus: SPR (Biacore), design close to Example 2.
For test [3], the target named is T2, human CD160 (CD160 GPI isoform) on cells (human, UniProt O95971 25-159, GPI anchor).
T2 construct: whole, on cells; Used for all cells said to carry human CD160: transfected CHO-S and E300 cells and cells that carry it naturally (YT2C2, blood NK, CD8+ T, T CD4, CLL cells); also called hCD160; CHO-S-hCD160 (clone 2G10)
T2 sequence (looked up): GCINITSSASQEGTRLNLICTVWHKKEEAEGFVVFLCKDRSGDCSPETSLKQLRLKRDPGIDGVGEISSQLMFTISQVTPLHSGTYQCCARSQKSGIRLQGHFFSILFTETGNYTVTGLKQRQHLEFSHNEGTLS
Description: flow cytometry, percentage of labelled YT2C2 NK cells, antibody 0.39-50 nM; the text means better binding. How it is done: (§1) The binding capacity of the anti-CD160 H7 antibody and of the H7 D12 variant in the IgG4, Fab and Fab-linker Fab format was evaluated during the labelling of surface CD160 expressed naturally on a clone of NK cell line (YT2C2), by measuring the percentage of cell labelled=percentage of binding (see FIG. 1C). For this, 2×10⁺⁵ YT2C2 cells were labelled with increasing concentration of antibodies (from 50 nM to 0.39 nM) and also with the appropriate control isotype. […] In FIG. 1C, IgG4 variants ELB01103 and ELB01104 bind more efficiently to the YT2C2 cells than the H7 IgG4 ELB01101 (which results in a EC₅₀ increased by a factor of 10 compared with H7 IgG4). This is also true for the Fab-linker-Fab format ELB01132. By contrast Fab format ELB01122 bind less efficiently to the YT2C2 cells than the H7 IgG4 ELB01101 (which results in a EC₅₀ decreased by a factor of 2 compared with H7 IgG4). This is certainly due to the monovalency of the Fab format.

In test [4] the target is T1, recombinant human CD160 protein, …. Description: BLI, biotinylated CD160 at 10 nM on streptavidin sensor, antibody 3.13-100 nM. How it is done:
The dissociation constants and the association (kₒₙ) and dissociation (kdis) rate constants for each antibody were calculated by applying a 1:1 interaction model, with overall mathematical modelling of curves (fit) (Rmax bound by the sensor) on the ForteBio 9.0 data analysis software.

For test [5], the target named is T2, human CD160 (CD160 GPI isoform) on cells. The test can be described thus: flow cytometry, percentage of labelled YT2C2 NK cells (2x10^5 cells), antibody 0.39 to 50 nM [panel C]. The procedure:
as §1

Test [6] concerns the target T1, recombinant human CD160 protein, …. The test can be described thus: BLI (repeats Table 7).
Test [7] concerns the target T2, human CD160 (CD160 GPI isoform) on cells. Description: flow cytometry on CHO-hCD160 transfectants. The procedure:
The binding capacity of the anti-CD160 H7 antibodies and of the variants (D12 and A09) thereof in the IgG4 and IgG1 format and in the IgG1 E345K format was evaluated during the labelling of surface CD160 expressed in a recombinant line CHO-S-hCD160 (clone 2G10) in comparison with non-transfected CHO-S cells, by measuring the median fluorescence index (MFI) (see FIG. 1). For this, 5×10⁺⁵ 2G10 (CHO-S-CD160) and non-transfected CHO-S cells were labelled with 2 μg of each of these antibodies and also with the appropriate control isotypes. In FIG. 1, all the anti-CD160 tested (regardless of the isotype or the IgG format or the variant) specifically recognize human CD160 expressed recombinantly by the CHO-S cells.
In FIG. 1B, the IgG4 variants bind more efficiently to the CHO-hCD160 transfectants than H7 (which results in a median fluorescence increased by a factor of 2 compared with H7 IgG4 ELB01101 or with H7 IgG4 H310A-H435Q ELB01102), this being even in the presence of the H310A-H435Q mutations.

Test [8] has as its target T1, recombinant human CD160 protein, …. The test can be described thus: BLI, biotinylated CD160 at 10 nM on streptavidin sensor, antibody 3.13-100 nM. This is another data set of the same source.
The target is the same in test [9]. The test can be described thus: BLI (repeats Table 8).

B1: D12 IgG4 S228P/R409K (antibody)
heavy: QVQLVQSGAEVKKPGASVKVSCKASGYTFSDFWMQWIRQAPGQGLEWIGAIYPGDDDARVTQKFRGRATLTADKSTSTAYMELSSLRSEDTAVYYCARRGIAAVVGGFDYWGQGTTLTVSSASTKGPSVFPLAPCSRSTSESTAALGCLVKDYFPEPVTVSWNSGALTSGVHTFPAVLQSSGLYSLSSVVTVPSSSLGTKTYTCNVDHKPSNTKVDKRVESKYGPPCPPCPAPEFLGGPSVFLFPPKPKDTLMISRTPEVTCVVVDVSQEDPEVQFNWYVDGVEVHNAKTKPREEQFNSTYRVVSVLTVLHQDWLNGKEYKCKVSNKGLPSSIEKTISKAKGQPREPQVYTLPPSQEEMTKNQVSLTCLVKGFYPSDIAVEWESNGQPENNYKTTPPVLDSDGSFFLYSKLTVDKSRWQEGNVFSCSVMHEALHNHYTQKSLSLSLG
light: EIVLTQSPATLSLSPGERATLSCRASQSISNHLHWYQQKPGQAPRLLIKYASQSISGIPARFSGSGSGTDFTLTISSLEPEDFAVYFCQQSNSWPLTFGGGTKVEIKRTVAAPSVFIFPPSDEQLKSGTASVVCLLNNFYPREAKVQWKVDNALQSGNSQESVTEQDSKDSTYSLSSTLTLSKADYEKHKVYACEVTHQGLSSPVTKSFNRGEC
notes: also called ELB01103; H7 IgG4 D12
For B1, in test [1], the “Gain in KD/respective IgG” value is 1.7 fold. In test [2], the “Gain in KD/respective IgG” value worked out at 3.1 fold, the Kd turned out to be 4.2 nM, the koff was found to be 0.00122 s⁻¹ and the kon turned out to be 292000 M⁻¹ s⁻¹. For the same molecule, the “EC50, factor against H7 IgG4 (ELB01101)” value in test [3] was determined as 10 fold. Moreover, in test [4], the Kd came out at 1.52 nM, the koff is 0.000752 s⁻¹ and the kon turned out to be 494000 M⁻¹ s⁻¹. Moreover, the concentration giving a half-maximal response (EC50 (read off the curve)) in [5] was around 3 nM. In test [6], the Kd amounted to 1.52 nM, the koff was determined as 0.000752 s⁻¹ and the kon stood at 494000 M⁻¹ s⁻¹. The “median fluorescence, factor against H7 IgG4 ELB01101” value in test [7] stood at 2 fold.

B2: D12 IgG4 S228P/R409K/H310A/H435Q (antibody)
heavy: QVQLVQSGAEVKKPGASVKVSCKASGYTFSDFWMQWIRQAPGQGLEWIGAIYPGDDDARVTQKFRGRATLTADKSTSTAYMELSSLRSEDTAVYYCARRGIAAVVGGFDYWGQGTTLTVSSASTKGPSVFPLAPCSRSTSESTAALGCLVKDYFPEPVTVSWNSGALTSGVHTFPAVLQSSGLYSLSSVVTVPSSSLGTKTYTCNVDHKPSNTKVDKRVESKYGPPCPPCPAPEFLGGPSVFLFPPKPKDTLMISRTPEVTCVVVDVSQEDPEVQFNWYVDGVEVHNAKTKPREEQFNSTYRVVSVLTVLAQDWLNGKEYKCKVSNKGLPSSIEKTISKAKGQPREPQVYTLPPSQEEMTKNQVSLTCLVKGFYPSDIAVEWESNGQPENNYKTTPPVLDSDGSFFLYSKLTVDKSRWQEGNVFSCSVMHEALHNQYTQKSLSLSLG
light: EIVLTQSPATLSLSPGERATLSCRASQSISNHLHWYQQKPGQAPRLLIKYASQSISGIPARFSGSGSGTDFTLTISSLEPEDFAVYFCQQSNSWPLTFGGGTKVEIKRTVAAPSVFIFPPSDEQLKSGTASVVCLLNNFYPREAKVQWKVDNALQSGNSQESVTEQDSKDSTYSLSSTLTLSKADYEKHKVYACEVTHQGLSSPVTKSFNRGEC
notes: also called ELB01104; H7 IgG4 D12 S228P/R409K/H310A/H435Q
For B2, the dissociation constant Kd in [8] worked out at 1.49 nM; in test [2], 5 nM; in test [9] it was 1.49 nM. The koff in test [8] stood at 0.000744 s⁻¹; in test [2], 0.00123 s⁻¹; in test [9], 0.000744 s⁻¹. For the same molecule, the figures for the kon in [8], in test [2] and in [9] were 499000 M⁻¹ s⁻¹, 244000 M⁻¹ s⁻¹ and 499000 M⁻¹ s⁻¹, respectively. For the same molecule, the “Gain in KD/respective IgG” value in test [1] stood at 2 fold; in test [2], 2.9 fold. Besides, the “EC50, factor against H7 IgG4 (ELB01101)” value in test [3] is 10 fold. Also, the “EC50 (read off the curve)” value in test [5] was around 3 nM. The “median fluorescence, factor against H7 IgG4 H310A-H435Q ELB01102” value in [7] stood at 2 fold.

The values above are taken from patent publication US20200109211A1 (ELSALYS BIOTECH, published 2020).
